Test results reported in US20230250154A1 (CYTONICS, published 2023).

T1: ADAMTS5 (human, UniProt Q9UNA0 262-622, limits assumed)
T1 sequence (looked up): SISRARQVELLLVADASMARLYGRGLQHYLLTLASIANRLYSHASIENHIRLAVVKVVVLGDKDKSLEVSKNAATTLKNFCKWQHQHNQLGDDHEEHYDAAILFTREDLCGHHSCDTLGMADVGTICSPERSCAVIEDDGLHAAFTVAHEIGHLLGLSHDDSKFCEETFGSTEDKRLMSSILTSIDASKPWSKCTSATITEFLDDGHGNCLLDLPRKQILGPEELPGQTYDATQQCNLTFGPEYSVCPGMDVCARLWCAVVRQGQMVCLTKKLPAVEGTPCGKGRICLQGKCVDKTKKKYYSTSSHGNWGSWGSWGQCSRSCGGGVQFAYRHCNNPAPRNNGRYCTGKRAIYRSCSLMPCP

T2: ADAMTS4 (human, UniProt O75173 213-685, limits assumed)
T2 sequence (looked up): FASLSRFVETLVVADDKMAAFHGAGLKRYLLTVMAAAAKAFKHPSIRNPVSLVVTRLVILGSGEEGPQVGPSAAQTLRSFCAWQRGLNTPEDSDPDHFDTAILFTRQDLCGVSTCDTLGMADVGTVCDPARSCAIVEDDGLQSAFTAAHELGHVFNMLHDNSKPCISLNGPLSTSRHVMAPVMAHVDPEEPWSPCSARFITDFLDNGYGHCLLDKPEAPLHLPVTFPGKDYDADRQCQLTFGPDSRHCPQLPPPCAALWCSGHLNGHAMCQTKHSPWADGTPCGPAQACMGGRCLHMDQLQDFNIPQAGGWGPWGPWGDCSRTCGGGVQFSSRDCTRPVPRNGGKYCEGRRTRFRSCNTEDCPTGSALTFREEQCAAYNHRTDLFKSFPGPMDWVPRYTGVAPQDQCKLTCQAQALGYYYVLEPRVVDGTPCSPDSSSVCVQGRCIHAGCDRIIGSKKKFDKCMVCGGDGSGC

B1: Variant A2M, bait region SEQ ID NO 101 (other)
chain: SVSGKPQYMVLVPSLLHTETTEKGCVLLSYLNETVTVSASLESVRGNRSLFTDLEAENDVLHCVAFAVPKSSSNEEVMFLTVQVKGPTQEFKKRTTVMVKNEDSLVFVQTDKSIYKPGQTVKFRVVSMDENFHPLNELIPLVYIQDPKGNRIAQWQSFQLEGGLKQFSFPLSSEPFQGSYKVVVQKKSGGRTEHPFTVEEFVLPKFEVQVTVPKIITILEEEMNVSVCGLYTYGKPVPGHVTVSICRKYSDASDCHGEDSQAFCEKFSGQLNSHGCFYQQVKTKVFQLKRKEYEMKLHTEAQIQEEGTVVELTGRQSSEITRTITKLSFVKVDSHFRQGIPFFGQVRLVDGKGVPIPNKVIFIRGNEANYYSNATTDEHGLVQFSINTTNVMGTSLTVRVNYKDRSPCYGYQWVSEEHEEAHHTAYLVFSPSKSFVHLEPMSHELPCGHTQTVQAHYILNGGTLLGLKKLSFYYLIMAKGGIVRTGTHGLLVKQEDMKGHFSISIPVKSDIAPVARLLIYAVLPTGDVIGDSAKYDVENCLANKVDLSFSPSQSLPASHAHLRVTAAPQSVCALRAVDQSVLLMKPDAELSASSVYNLLPEKDLTGFPGPLNDQDDEDCINRHNVYINGITYTPVSSTNEKDMYSFLEDMGLKAFTNSKIRKPKMCPQLEQYEMHGPEGLRVGEEEGGGFYESDVMGRGHARLVHVEEPHTKLRKYFPETWIWDLVVVNSAGVAEVGVTVPDTITEWKAGAFCLSEDAGLGISSTASLRAFQPFFVELTMPYSVIRGEAFTLKATVLNYLPKCIRVSVQLEASPAFLAVPVEKEQAPHCICANGRQTVSWAVTPKSLGNVNFTVSAEALESQELCGTEVPSVPEHGRKDTVIKPLLVEPEGLEKETTFNSLLCPSGGEVSEELSLKLPPNVVEESARASVSVLGDILGSAMQNTQNLLQMPYGCGEQNMVLFAPNIYVLDYLNETQQLTPEIKSKAIGYLNTGYQRQLNYKHYDGSYSTFGERYGRNQGNTWLTAFVLKTFAQARAYIFIDEAHITQALIWLSQRQKDNGCFRSSGSLLNNAIKGGVEDEVTLSAYITIALLEIPLTVTHPVVRNALFCLESAWKTAQEGDHGSHVYTKALLAYAFALAGNQDKRKEVLKSLNEEAVKKDNSVHWERPQKPKAPVGHFYEPQAPSAEVEMTSYVLLAYLTAQPAPTSEDLTSATNIVKWITKQQNAQGGFSSTQDTVVALHALSKYGAATFTRTGKAAQVTIQSSGTFSSKFQVDNNNRLLLQQVSLPELPGEYSMKVTGEGCVYLQTSLKYNILPEKEEFPFALGVQTLPQTCDEPKAHTSFQISLSVSYTGSRSASNMAIVDVKMVSGFIPLKPTVKMLERSNHVSRTEVSSNHVLIYLDKVSNQTLSLFFTVLQDVPVRDLKPAIVKVYDYYETDEFAIAEYNAPCSKDLGNADYKDDDDKGASHHHHHH
B2: Variant A2M, bait region SEQ ID NO 102 (other)
chain: SVSGKPQYMVLVPSLLHTETTEKGCVLLSYLNETVTVSASLESVRGNRSLFTDLEAENDVLHCVAFAVPKSSSNEEVMFLTVQVKGPTQEFKKRTTVMVKNEDSLVFVQTDKSIYKPGQTVKFRVVSMDENFHPLNELIPLVYIQDPKGNRIAQWQSFQLEGGLKQFSFPLSSEPFQGSYKVVVQKKSGGRTEHPFTVEEFVLPKFEVQVTVPKIITILEEEMNVSVCGLYTYGKPVPGHVTVSICRKYSDASDCHGEDSQAFCEKFSGQLNSHGCFYQQVKTKVFQLKRKEYEMKLHTEAQIQEEGTVVELTGRQSSEITRTITKLSFVKVDSHFRQGIPFFGQVRLVDGKGVPIPNKVIFIRGNEANYYSNATTDEHGLVQFSINTTNVMGTSLTVRVNYKDRSPCYGYQWVSEEHEEAHHTAYLVFSPSKSFVHLEPMSHELPCGHTQTVQAHYILNGGTLLGLKKLSFYYLIMAKGGIVRTGTHGLLVKQEDMKGHFSISIPVKSDIAPVARLLIYAVLPTGDVIGDSAKYDVENCLANKVDLSFSPSQSLPASHAHLRVTAAPQSVCALRAVDQSVLLMKPDAELSASSVYNLLPEKDLTGFPGPLNDQDDEDCINRHNVYINGITYTPVSSTNEKDMYSFLEDMGLKAFTNSKIRKPKMCPQLEQYEMHGPEGLRVGGYPGSSRGFYESDVMGRGHARLVHVEEPHTKLLRKYFPETWIWDLVVVNSAGVAEVGVTVPDTITEWKAGAFCLSEDAGLGISSTASLRAFQPFFVELTMPYSVIRGEAFTLKATVLNYLPKCIRVSVQLEASPAFLAVPVEKEQAPHCICANGRQTVSWAVTPKSLGNVNFTVSAEALESQELCGTEVPSVPEHGRKDTVIKPLLVEPEGLEKETTFNSLLCPSGGEVSEELSLKLPPNVVEESARASVSVLGDILGSAMQNTQNLLQMPYGCGEQNMVLFAPNIYVLDYLNETQQLTPEIKSKAIGYLNTGYQRQLNYKHYDGSYSTFGERYGRNQGNTWLTAFVLKTFAQARAYIFIDEAHITQALIWLSQRQKDNGCFRSSGSLLNNAIKGGVEDEVTLSAYITIALLEIPLTVTHPVVRNALFCLESAWKTAQEGDHGSHVYTKALLAYAFALAGNQDKRKEVLKSLNEEAVKKDNSVHWERPQKPKAPVGHFYEPQAPSAEVEMTSYVLLAYLTAQPAPTSEDLTSATNIVKWITKQQNAQGGFSSTQDTVVALHALSKYGAATFTRTGKAAQVTIQSSGTFSSKFQVDNNNRLLLQQVSLPELPGEYSMKVTGEGCVYLQTSLKYNILPEKEEFPFALGVQTLPQTCDEPKAHTSFQISLSVSYTGSRSASNMAIVDVKMVSGFIPLKPTVKMLERSNHVSRTEVSSNHVLIYLDKVSNQTLSLFFTVLQDVPVRDLKPAIVKVYDYYETDEFAIAEYNAPCSKDLGNADYKDDDDKGASHHHHHH
B3: Variant A2M, bait region SEQ ID NO 103 (other)
chain: SVSGKPQYMVLVPSLLHTETTEKGCVLLSYLNETVTVSASLESVRGNRSLFTDLEAENDVLHCVAFAVPKSSSNEEVMFLTVQVKGPTQEFKKRTTVMVKNEDSLVFVQTDKSIYKPGQTVKFRVVSMDENFHPLNELIPLVYIQDPKGNRIAQWQSFQLEGGLKQFSFPLSSEPFQGSYKVVVQKKSGGRTEHPFTVEEFVLPKFEVQVTVPKIITILEEEMNVSVCGLYTYGKPVPGHVTVSICRKYSDASDCHGEDSQAFCEKFSGQLNSHGCFYQQVKTKVFQLKRKEYEMKLHTEAQIQEEGTVVELTGRQSSEITRTITKLSFVKVDSHFRQGIPFFGQVRLVDGKGVPIPNKVIFIRGNEANYYSNATTDEHGLVQFSINTTNVMGTSLTVRVNYKDRSPCYGYQWVSEEHEEAHHTAYLVFSPSKSFVHLEPMSHELPCGHTQTVQAHYILNGGTLLGLKKLSFYYLIMAKGGIVRTGTHGLLVKQEDMKGHFSISIPVKSDIAPVARLLIYAVLPTGDVIGDSAKYDVENCLANKVDLSFSPSQSLPASHAHLRVTAAPQSVCALRAVDQSVLLMKPDAELSASSVYNLLPEKDLTGFPGPLNDQDDEDCINRHNVYINGITYTPVSSTNEKDMYSFLEDMGLKAFTNSKIRKPKMCPQLEQYEMHGPEGLRVGGARGLEGGFAGLPNGGEEGVEEGKLRKYFPETWIWDLVVVNSAGVAEVGVTVPDTITEWKAGAFCLSEDAGLGISSTASLRAFQPFFVELTMPYSVIRGEAFTLKATVLNYLPKCIRVSVQLEASPAFLAVPVEKEQAPHCICANGRQTVSWAVTPKSLGNVNFTVSAEALESQELCGTEVPSVPEHGRKDTVIKPLLVEPEGLEKETTFNSLLCPSGGEVSEELSLKLPPNVVEESARASVSVLGDILGSAMQNTQNLLQMPYGCGEQNMVLFAPNIYVLDYLNETQQLTPEIKSKAIGYLNTGYQRQLNYKHYDGSYSTFGERYGRNQGNTWLTAFVLKTFAQARAYIFIDEAHITQALIWLSQRQKDNGCFRSSGSLLNNAIKGGVEDEVTLSAYITIALLEIPLTVTHPVVRNALFCLESAWKTAQEGDHGSHVYTKALLAYAFALAGNQDKRKEVLKSLNEEAVKKDNSVHWERPQKPKAPVGHFYEPQAPSAEVEMTSYVLLAYLTAQPAPTSEDLTSATNIVKWITKQQNAQGGFSSTQDTVVALHALSKYGAATFTRTGKAAQVTIQSSGTFSSKFQVDNNNRLLLQQVSLPELPGEYSMKVTGEGCVYLQTSLKYNILPEKEEFPFALGVQTLPQTCDEPKAHTSFQISLSVSYTGSRSASNMAIVDVKMVSGFIPLKPTVKMLERSNHVSRTEVSSNHVLIYLDKVSNQTLSLFFTVLQDVPVRDLKPAIVKVYDYYETDEFAIAEYNAPCSKDLGNADYKDDDDKGASHHHHHH

Columns and labels:
Test in all cases: cell-based or functional assay
ADAMTS5 = target: T1, ADAMTS5
MMP13 = MMP13 (human, UniProt P45452 104-471, limits assumed)
ADAMTS4 = target: T2, ADAMTS4

Row | Binder | Protease Inhibition (% of WT) (ADAMTS5) | Protease Inhibition (% of WT) (MMP13) | Protease Inhibition (% of WT) (ADAMTS4)
1 | B1 | 97 % of WT | 124 % of WT | 168 % of WT
2 | B2 | 354 % of WT | 127 % of WT | 187 % of WT
3 | B3 | 309 % of WT | 52 % of WT | 168 % of WT
